Target: native human alpha-thrombin (Homo sapiens, UniProt P00734;P00734 328-363;364-622)
Test: ITC; ITC: 20 mM HEPES-NaOH, 150 mM NaCl, 5 mM KCl, 2 mM MgCl2, 1 mM CaCl2, pH 7.4, 25 C; EMSA: same plus 0.05% Tween 20 and 10% glycerol, room temperature 30 min, ge

B1: D-6 aptamer (structured_DNA)
DNA: CGGATCCAGTTACGGAACTGAACAGAAGGGTGGTGTGGTTGGACTGTTCATTCAGTAAGCTTCGG
Kd: 27 nM

B2: D-L-9-2t (structured_DNA)
DNA: GATGAACTTGTTGAAACCCAACGGGAGAATCGTTCATT
modifications: natural D-DNA
binding result: no binding

B3: D-L-9-1t (structured_DNA)
DNA: ACGGAACGCGTTTCAAGACTACCGTGTTTGTTCCGT
modifications: natural D-DNA
binding result: no binding

— paper PMC9646512, “Directed evolution and selection of biostable l-DNA aptamers with a mirror-image DNA polymerase”
